9 molecules from patent US20260132178A1 (SYNERKINE PHARMA B V, published 2026) can be followed below.

Sequences and labels used below:
B1: IL10M(S) (ligand)
chain: KSKAVEQVKNAFNKLQEKGIYKAMSEFDIFINYIEAYMTMKIRNGSGGGGSGTSPGQGTQSENSCTHFPGNLPNMLRDLRDAFSRVKTFFQMKDQLDNLLLKESLLEDFKGYLGCQALSEMIQFYLEEVMPQAENQDPDIKAHVNSLGENLKTLRLRLRRCHRFLPCEN
B2: IL4-10M(S) (ligand)
chain: KSKAVEQVKNAFNKLQEKGIYKAMSEFDIFINYIEAYMTMKIRNGSGGGGSGTSPGQGTQSENSCTHFPGNLPNMLRDLRDAFSRVKTFFQMKDQLDNLLLKESLLEDFKGYLGCQALSEMIQFYLEEVMPQAENQDPDIKAHVNSLGENLKTLRLRLRRCHRFLPCENGSGGGGSGTHKCDITLQEIIKTLNSLTEQKTLCTELTVTDIFAASKNTTEKETFCRAATVLRQFYSHHEKDTRCLGATAQQFHRHKQLIRFLKRLDRNLWGLAGLNSCPVKEANQSTLENFLERLKTIMREKYSKCSSHHHHHH
B3: IL4-10 fusion (wt, dimer) (ligand)
chain: HKCDITLQEIIKTLNSLTEQKTLCTELTVTDIFAASKNTTEKETFCRAATVLRQFYSHHEKDTRCLGATAQQFHRHKQLIRFLKRLDRNLWGLAGLNSCPVKEANQSTLENFLERLKTIMREKYSKCSSGSGGGGSGTSPGQGTQSENSCTHFPGNLPNMLRDLRDAFSRVKTFFQMKDQLDNLLLKESLLEDFKGYLGCQALSEMIQFYLEEVMPQAENQDPDIKAHVNSLGENLKTLRLRLRRCHRFLPCENKSKAVEQVKNAFNKLQEKGIYKAMSEFDIFINYIEAYMTMKIRN
B4: IL4-10M(J) (ligand)
chain: HKCDITLQEIIKTLNSLTEQKTLCTELTVTDIFAASKNTTEKETFCRAATVLRQFYSHHEKDTRCLGATAQQFHRHKQLIRFLKRLDRNLWGLAGLNSCPVKEANQSTLENFLERLKTIMREKYSKCSSGSGGGGSGTSPGQGTQSENSCTHFPGNLPNMLRDLRDAFSRVKTFFQMKDQLDNLLLKESLLEDFKGYLGCQALSEMIQFYLEEVMPQAENQDPDIKAHVNSLGENLKTLRLRLRRCHRFLPCENGGGSGGKSKAVEQVKNAFNKLQEKGIYKAMSEFDIFINYIEAYMTMKIRN
B5: IL4-10M(J) mouse Fc (Fc fusion)
chain 1: HKCDITLQEIIKTLNSLTEQKTLCTELTVTDIFAASKNTTEKETFCRAATVLRQFYSHHEKDTRCLGATAQQFHRHKQLIRFLKRLDRNLWGLAGLNSCPVKEANQSTLENFLERLKTIMREKYSKCSSGSGGGGSGTCKPCICTVPEVSSVFIFPPKPKDVLTITLTPKVTCVVVAISKDDPEVQFSWFVDDVEVHTAQTKPREEQINSTFRSVSELPIMHQDWLNGKEFKCRVNSAAFPAPIEKTISKTKGRPKAPQVYTIPPPKKQMAKDKVSLTCMITNFFPEDITVEWQWNGQPAENYKNTQPIMKTDGSYFVYSKLNVQKSNWEAGNTFTCSVLHEGLHNHHTEKSLSHSPGK
chain 2: SPGQGTQSENSCTHFPGNLPNMLRDLRDAFSRVKTFFQMKDQLDNLLLKESLLEDFKGYLGCQALSEMIQFYLEEVMPQAENQDPDIKAHVNSLGENLKTLRLRLRRCHRFLPCENGGGSGGKSKAVEQVKNAFNKLQEKGIYKAMSEFDIFINYIEAYMTMKIRNTGSGGGGSGTCKPCICTVPEVSSVFIFPPKPKDVLTITLTPKVTCVVVAISKDDPEVQFSWFVDDVEVHTAQTKPREEQINSTFRSVSELPIMHQDWLNGKEFKCRVNSAAFPAPIEKTISKTKGRPKAPQVYTIPPPKEQMAKDKVSLTCMITNFFPEDITVEWQWNGQPAENYKNTQPIMDTDGSYFVYSELNVQKSNWEAGNTFTCSVLHEGLHNHHTEDSLSHSPGK
B6: IL10M(J) (ligand)
chain: SPGQGTQSENSCTHFPGNLPNMLRDLRDAFSRVKTFFQMKDQLDNLLLKESLLEDFKGYLGCQALSEMIQFYLEEVMPQAENQDPDIKAHVNSLGENLKTLRLRLRRCHRFLPCENGGGSGGKSKAVEQVKNAFNKLQEKGIYKAMSEFDIFINYIEAYMTMKIRN
B7: IL4-Fc (Fc fusion)
chain: HKCDITLQEIIKTLNSLTEQKTLCTELTVTDIFAASKNTTEKETFCRAATVLRQFYSHHEKDTRCLGATAQQFHRHKQLIRFLKRLDRNLWGLAGLNSCPVKEANQSTLENFLERLKTIMREKYSKCSSGSGGGGSGTCPPCPAPELLGGPSVFLFPPKPKDTLMISRTPEVTCVVVDVSHEDPEVKFNWYVDGVEVHNAKTKPREEQYNSTYRVVSVLTVLHQDWLNGKEYKCKVSNKALPAPIEKTISKAKGQPREPQVCTLPPSRDELTKNQVSLSCAVKGFYPSDIAVEWESNGQPENNYKTTPPVLDSDGSFFLVSKLTVDKSRWQQGNVFSCSVMHEALHNHYTQKSLSLSPGK
B8: IL4-13 Fc (mouse) (Fc fusion)
chain 1: HIHGCDKNHLREIIGILNEVTGEGTPCTEMDVPNVLTATKNTTESELVCRASKVLRIFYLKHGKTPCLKKNSSVLMELQRLFRAFRCLDSSISCTMNESKSTSLKDFLESLKSIMQMDYSGSGGGGSGTCKPCICTVPEVSSVFIFPPKPKDVLTITLTPKVTCVVVAISKDDPEVQFSWFVDDVEVHTAQTKPREEQINSTFRSVSELPIMHQDWLNGKEFKCRVNSAAFPAPIEKTISKTKGRPKAPQVYTIPPPKKQMAKDKVSLTCMITNFFPEDITVEWQWNGQPAENYKNTQPIMKTDGSYFVYSKLNVQKSNWEAGNTFTCSVLHEGLHNHHTEKSLSHSPGK
chain 2: APGPVPRSVSLPLTLKELIEELSNITQDQTPLCNGSMVWSVDLAAGGFCVALDSLTNISNCNAIYRTQRILHGLCNRKAPTTVSSLPDTKIEVAHFITKLLSYTKQLFRHGPFTGSGGGGSGTCKPCICTVPEVSSVFIFPPKPKDVLTITLTPKVTCVVVAISKDDPEVQFSWFVDDVEVHTAQTKPREEQINSTFRSVSELPIMHQDWLNGKEFKCRVNSAAFPAPIEKTISKTKGRPKAPQVYTIPPPKEQMAKDKVSLTCMITNFFPEDITVEWQWNGQPAENYKNTQPIMDTDGSYFVYSELNVQKSNWEAGNTFTCSVLHEGLHNHHTEDSLSHSPGK
B9: IL4-13 (mouse) (ligand)
chain: HHHHHHIHGCDKNHLREIIGILNEVTGEGTPCTEMDVPNVLTATKNTTESELVCRASKVLRIFYLKHGKTPCLKKNSSVLMELQRLFRAFRCLDSSISCTMNESKSTSLKDFLESLKSIMQMDYSGSGGGGSGTAPGPVPRSVSLPLTLKELIEELSNITQDQTPLCNGSMVWSVDLAAGGFCVALDSLTNISNCNAIYRTQRILHGLCNRKAPTTVSSLPDTKIEVAHFITKLLSYTKQLFRHGPF

Sequence of mIL4Ra/mIL13Ra2 (P16382 26-257, chain 1 of 2): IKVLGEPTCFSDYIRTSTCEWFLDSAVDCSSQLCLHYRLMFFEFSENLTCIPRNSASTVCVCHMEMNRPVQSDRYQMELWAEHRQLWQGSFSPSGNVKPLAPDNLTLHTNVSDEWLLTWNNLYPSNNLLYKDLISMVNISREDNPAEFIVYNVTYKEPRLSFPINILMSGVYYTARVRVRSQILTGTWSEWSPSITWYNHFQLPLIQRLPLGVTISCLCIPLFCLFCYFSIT
Sequence of mIL4Ra/mIL13Ra2 (O88786 22-355, chain 2 of 2): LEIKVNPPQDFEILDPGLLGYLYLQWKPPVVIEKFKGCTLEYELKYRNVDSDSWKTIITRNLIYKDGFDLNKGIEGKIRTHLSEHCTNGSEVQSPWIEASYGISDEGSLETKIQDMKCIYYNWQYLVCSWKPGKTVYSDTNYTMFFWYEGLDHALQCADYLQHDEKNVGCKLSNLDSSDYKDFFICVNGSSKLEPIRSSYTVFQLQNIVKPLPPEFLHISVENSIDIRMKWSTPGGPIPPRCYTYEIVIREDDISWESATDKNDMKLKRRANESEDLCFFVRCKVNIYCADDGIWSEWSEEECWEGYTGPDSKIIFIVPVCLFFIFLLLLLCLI

One test deals with T1, IL10 receptor (UniProt Q13651 22-578; Q08334 20-325, limits assumed).
T1 sequence (looked up) 1: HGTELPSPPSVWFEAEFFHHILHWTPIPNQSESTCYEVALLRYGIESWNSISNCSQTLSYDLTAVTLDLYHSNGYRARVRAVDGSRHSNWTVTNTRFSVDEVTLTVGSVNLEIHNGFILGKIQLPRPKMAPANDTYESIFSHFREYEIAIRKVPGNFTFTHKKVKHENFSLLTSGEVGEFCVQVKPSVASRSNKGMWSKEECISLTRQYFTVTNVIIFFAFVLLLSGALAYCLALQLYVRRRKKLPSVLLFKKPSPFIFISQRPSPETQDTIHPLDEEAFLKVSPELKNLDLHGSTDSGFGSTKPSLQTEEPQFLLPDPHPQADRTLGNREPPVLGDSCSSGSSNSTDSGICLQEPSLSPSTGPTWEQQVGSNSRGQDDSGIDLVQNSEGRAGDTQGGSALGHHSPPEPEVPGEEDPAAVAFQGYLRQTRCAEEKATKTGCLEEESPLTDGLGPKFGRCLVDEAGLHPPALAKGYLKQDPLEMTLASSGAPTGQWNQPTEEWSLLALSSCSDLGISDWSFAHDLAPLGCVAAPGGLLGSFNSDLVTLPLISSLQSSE
T1 sequence (looked up) 2: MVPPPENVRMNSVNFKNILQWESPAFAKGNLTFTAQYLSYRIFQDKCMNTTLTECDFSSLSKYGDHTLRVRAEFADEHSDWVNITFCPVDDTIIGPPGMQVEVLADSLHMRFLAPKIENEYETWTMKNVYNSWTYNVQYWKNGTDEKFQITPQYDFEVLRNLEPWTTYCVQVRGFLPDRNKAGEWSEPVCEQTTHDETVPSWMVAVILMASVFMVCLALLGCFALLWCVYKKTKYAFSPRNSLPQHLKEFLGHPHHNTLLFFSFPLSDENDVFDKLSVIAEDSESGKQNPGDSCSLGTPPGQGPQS
Briefly: cell-based or functional assay.
As for B1, the “HEK-Blue IL10 EC50 (STAT-3 mediated SEAP expression)” value (from here on “HEK-Blue IL10 EC50”) was 0.149 nM.

B2: the “HEK-Blue IL10 EC50” value was 0.117 nM. Take B3: the “HEK-Blue IL10 EC50” value is 0.0289 nM. For the molecule B4, the “HEK-Blue IL10 EC50” value came out at 0.0778 nM. On the same count and under the same terms, the same measure for B5: 0.52 nM; for B6: 0.0634 nM.

The target in another test is T2, IL4 (type II) receptor (UniProt P24394 26-825; P78552 22-427, limits assumed).
T2 sequence (looked up) 1: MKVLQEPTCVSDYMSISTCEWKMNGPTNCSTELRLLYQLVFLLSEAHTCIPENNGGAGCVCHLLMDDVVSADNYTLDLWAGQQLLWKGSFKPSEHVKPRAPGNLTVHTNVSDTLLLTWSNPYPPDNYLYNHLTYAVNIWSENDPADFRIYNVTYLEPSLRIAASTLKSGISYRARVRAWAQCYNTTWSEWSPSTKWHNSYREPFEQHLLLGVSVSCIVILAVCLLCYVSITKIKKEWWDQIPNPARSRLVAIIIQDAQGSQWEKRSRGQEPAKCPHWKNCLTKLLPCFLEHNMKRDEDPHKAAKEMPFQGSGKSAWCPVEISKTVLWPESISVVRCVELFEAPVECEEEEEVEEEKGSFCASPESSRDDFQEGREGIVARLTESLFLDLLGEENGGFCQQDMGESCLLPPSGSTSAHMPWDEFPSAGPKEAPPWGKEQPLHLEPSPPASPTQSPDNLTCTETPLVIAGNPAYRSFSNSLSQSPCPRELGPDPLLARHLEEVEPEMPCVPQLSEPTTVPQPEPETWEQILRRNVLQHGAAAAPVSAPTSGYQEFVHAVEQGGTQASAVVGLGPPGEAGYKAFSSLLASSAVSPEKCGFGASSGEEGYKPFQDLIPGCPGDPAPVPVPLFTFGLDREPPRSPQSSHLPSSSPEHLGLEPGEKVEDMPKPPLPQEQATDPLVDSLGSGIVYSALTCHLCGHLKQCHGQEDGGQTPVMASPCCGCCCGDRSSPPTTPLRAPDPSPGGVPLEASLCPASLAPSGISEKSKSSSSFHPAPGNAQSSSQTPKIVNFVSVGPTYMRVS
T2 sequence (looked up) 2: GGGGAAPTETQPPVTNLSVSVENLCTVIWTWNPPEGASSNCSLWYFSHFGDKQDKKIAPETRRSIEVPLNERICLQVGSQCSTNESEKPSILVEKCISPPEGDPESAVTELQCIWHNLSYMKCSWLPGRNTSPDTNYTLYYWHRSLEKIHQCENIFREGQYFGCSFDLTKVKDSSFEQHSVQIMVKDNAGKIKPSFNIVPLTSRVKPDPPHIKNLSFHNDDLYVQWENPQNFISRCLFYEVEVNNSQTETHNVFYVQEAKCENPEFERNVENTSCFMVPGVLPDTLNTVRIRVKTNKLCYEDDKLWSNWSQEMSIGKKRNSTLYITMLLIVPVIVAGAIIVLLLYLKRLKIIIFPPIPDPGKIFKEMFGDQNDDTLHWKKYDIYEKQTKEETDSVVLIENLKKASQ
Briefly: cell-based or functional assay.
In the case of B7, the “HEK-Blue IL4/13 EC50 (STAT6-induced SEAP expression)” value was 0.0201 nM.

The next test addresses mIL4Ra/mIL13Ra2 (mouse, UniProt P16382 26-257; O88786 22-355). Description: cell-based or functional assay.
Regarding B8, the “Heterologous clustering mIL4Ra/mIL13Ra2 EC50 (NanoBiT enzyme complementation)” value came out at 1100 pM. Still for that read-out and setting: the same measure for B9: 187 pM.
